Measurements: paper PMC5723419

Target: Aminopeptidase P from Pseudomonas aeruginosa (Pa-PepP) (Pseudomonas aeruginosa PA14)
Test: crystal structure

stoichiometry N: 4
Substance: Aminopeptidase P from Pseudomonas aeruginosa (Pa-PepP) (enzyme)
